Reference: the supplement of paper PMC7877785
± gives the uncertainty stated by the source.

Assay: self-splicing fitness, log relative to wild type (ln ratio); higher = more splicing; Tetrahymena group I intron in knt gene, E. coli kanamycin selection, DiMSum; sequences stand for … in CUCUCU…GGAGGGAAAAGUUAUCAGGCAUGCACCUGGUAGCUAGUCUUUAAACCAAUAGAUUGCAUCGGUUUAAAAGGCAAGACCGUCAAAUUGCGGGAAAGGGGUCAACAGCCGUUCAGUACCAAGUCUCAGGGGAAACUUUGAGAUGGCCUUGCAAAGGGUAUGGUAAUAAGCUGACGGACAUGGUCCUAACCACGCAGCCAAGUCCUAAGUCAACAGAUCUUCUGUUGAUAUGGAUGCAGUUCACAGACUAAAUGUCGGUCGGGGAAGAUGUAUUCUUCUCAUAAGAUAUAGUCGGACCUCUCCUUAAUGGGAGCUAGCGGAUGAAGUGAUGCAACACUGGAGCCGCUGGGAACUAAUUUGUAUGCGAAAGUAUAUUGAUUAGUUUUGGAGUACUCGUGGUCG
Procedure, shortened: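 Pooled colonies went to amplicon sequencing on an Illumina HiSeq 2500 after six replicate transformations. The plates were LB agar with 100 μg/mL carbenicillin, 50 μM IPTG and 0.2% rhamnose, with or without 25 μg/mL kanamycin, incubated overnight at 37°C or 30°C. The E. coli BL21(DE3) library had all eight P1ex-region intron nucleotides randomised, the intron placed in the knt kanamycin-resistance gene on pET-22b(+). DiMSum fitness is the error-weighted combination of replicate fold changes, kanamycin against none, normalised to wild type.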

Sequence	self-splicing fitness (ln) (30 °C)	self-splicing fitness (ln) (37 °C)
UGGUAGCAAUAUUACGGUUG	-0.694 ± 0.082	-0.285 ± 0.11
UGGUAGCAAUAUUACGUAAC	-2.08 ± 0.45	
UGGUAGCAAUAUUACGUAUG	-1.66 ± 0.13	-1.18 ± 0.13
UGGUAGCAAUAUUACGUCAA	-2.31 ± 0.19	-0.773 ± 0.15
UGGUAGCAAUAUUACGUCAU	-2.49 ± 0.23	-2.57 ± 0.36
UGGUAGCAAUAUUACGUGGG	-3.64 ± 0.3	-2.14 ± 0.19
UGUAAGCAAUAUUACGAAUC	-1.82 ± 0.25	-2.33 ± 0.49
UGUAAGCAAUAUUACGACCU	-0.205 ± 0.13	-0.0468 ± 0.12
UGUAAGCAAUAUUACGAGCG	0.195 ± 0.1	0.758 ± 0.14
UGUAAGCAAUAUUACGAUAC	-2.7 ± 0.28	-2.07 ± 0.26
UGUAAGCAAUAUUACGAUCA	0.319 ± 0.079	0.535 ± 0.13
UGUAAGCAAUAUUACGAUCU	0.361 ± 0.11	0.0759 ± 0.13
UGUAAGCAAUAUUACGAUGC	-3.75 ± 0.27	-2.34 ± 0.28
UGUAAGCAAUAUUACGCAGG	-3.22 ± 0.16	-3.06 ± 0.24
UGUAAGCAAUAUUACGCAUA	-0.865 ± 0.18	-1.69 ± 0.17
UGUAAGCAAUAUUACGCCGG	-1.46 ± 0.12	-0.237 ± 0.13
UGUAAGCAAUAUUACGCGCU	-0.925 ± 0.078	-0.315 ± 0.11
UGUAAGCAAUAUUACGCUUA	-1.79 ± 0.15	-2.39 ± 0.19
UGUAAGCAAUAUUACGCUUG	-4.2 ± 0.42	-1.99 ± 0.21
UGUAAGCAAUAUUACGGAGA	-2.88 ± 0.32	-1.97 ± 0.42
UGUAAGCAAUAUUACGGGUG	-0.874 ± 0.18	-0.00955 ± 0.19
UGUAAGCAAUAUUACGGUAU		-1.68 ± 0.21
UGUAAGCAAUAUUACGGUCG	0.275 ± 0.081	-0.0342 ± 0.098
UGUAAGCAAUAUUACGGUGC	-3.82 ± 0.35	-2.13 ± 0.26
UGUAAGCAAUAUUACGGUGU	-3.61 ± 0.22	-0.0793 ± 0.17
UGUAAGCAAUAUUACGUAAA	-2.36 ± 0.19	-1.02 ± 0.16

Sequence	self-splicing fitness (ln) (30 °C)	self-splicing fitness (ln) (37 °C)
UGUAAGCAAUAUUACGUCCU	-0.564 ± 0.074	0.215 ± 0.079
UGUAAGCAAUAUUACGUCUG	-0.606 ± 0.07	0.32 ± 0.093
UGUCAGCAAUAUUACGAAAA	-1.06 ± 0.095	-0.75 ± 0.096
UGUCAGCAAUAUUACGAACA	-0.481 ± 0.068	0.521 ± 0.086
UGUCAGCAAUAUUACGAACC	-0.269 ± 0.27	-0.024 ± 0.26
UGUCAGCAAUAUUACGAACU	-0.744 ± 0.086	-0.0942 ± 0.086
UGUCAGCAAUAUUACGAGCG	0.308 ± 0.083	0.59 ± 0.11
UGUCAGCAAUAUUACGAGGC	-1.97 ± 0.26	-3.1 ± 0.32
UGUCAGCAAUAUUACGAGUC	-3.49 ± 0.26	-2.78 ± 0.25
UGUCAGCAAUAUUACGAUUA	-0.198 ± 0.061	0.519 ± 0.088
UGUCAGCAAUAUUACGCAGC	-3.7 ± 0.32	-0.622 ± 0.24
UGUCAGCAAUAUUACGCCCC	-0.691 ± 0.29	0.0501 ± 0.3
UGUCAGCAAUAUUACGCCCG	-0.222 ± 0.15	-0.125 ± 0.21
UGUCAGCAAUAUUACGCUCC	-0.598 ± 0.29	-1.2 ± 0.34
UGUCAGCAAUAUUACGCUGC	-3.54 ± 0.43	-0.934 ± 0.25
UGUCAGCAAUAUUACGGCGG	-0.922 ± 0.084	0.0377 ± 0.12
UGUCAGCAAUAUUACGUCCU	-0.0922 ± 0.06	-0.325 ± 0.073
UGUCAGCAAUAUUACGUCUU	-0.331 ± 0.071	-0.0647 ± 0.09
UGUCAGCAAUAUUACGUGCC	-0.825 ± 0.12	-0.182 ± 0.14
UGUCAGCAAUAUUACGUGCU	-3.51 ± 0.25	-2.23 ± 0.24
UGUCAGCAAUAUUACGUGGU	-4.15 ± 0.18	-1.96 ± 0.11
UGUCAGCAAUAUUACGUGUA	-0.648 ± 0.056	0.127 ± 0.074
UGUCAGCAAUAUUACGUUUC		-2.07 ± 0.28
UGUGAGCAAUAUUACGAACU	-0.733 ± 0.14	0.203 ± 0.21
UGUGAGCAAUAUUACGACGG	-1.3 ± 0.34	-0.759 ± 0.28
UGUGAGCAAUAUUACGAGCA	-0.913 ± 0.16	-0.797 ± 0.21

Sequence	self-splicing fitness (ln) (30 °C)	self-splicing fitness (ln) (37 °C)
UGUGAGCAAUAUUACGAUCU	-1.57 ± 0.15	-0.175 ± 0.14
UGUGAGCAAUAUUACGCCUG	-1.48 ± 0.16	-1.05 ± 0.16
UGUGAGCAAUAUUACGCGAU	-3.88 ± 0.33	-3.57 ± 0.37
UGUGAGCAAUAUUACGCGCG	-1.13 ± 0.43	
UGUGAGCAAUAUUACGCGGA	-2.4 ± 0.2	-1.31 ± 0.21
UGUGAGCAAUAUUACGGACA	-1.44 ± 0.13	0.089 ± 0.13
UGUGAGCAAUAUUACGGCCA	-0.0854 ± 0.18	0.465 ± 0.34
UGUGAGCAAUAUUACGGCGC	-1.23 ± 0.33	
UGUGAGCAAUAUUACGGGAA		-2.51 ± 0.33
UGUGAGCAAUAUUACGGGGA	-2.36 ± 0.29	-1.65 ± 0.33
UGUGAGCAAUAUUACGUAGC	-4.22 ± 0.42	-1.65 ± 0.29
UGUGAGCAAUAUUACGUUCU	-3.79 ± 0.33	-3.12 ± 0.4
UGUUAGCAAUAUUACGAAGA		-1.54 ± 0.4
UGUUAGCAAUAUUACGACGG	-0.352 ± 0.16	-0.218 ± 0.18
UGUUAGCAAUAUUACGACUA	0.407 ± 0.22	-0.164 ± 0.19
UGUUAGCAAUAUUACGAGGG	-3.43 ± 0.26	-1.84 ± 0.23
UGUUAGCAAUAUUACGAUUU	-0.79 ± 0.11	-1.55 ± 0.14
UGUUAGCAAUAUUACGCAGA	-0.741 ± 0.46	-0.752 ± 0.3
UGUUAGCAAUAUUACGCAUU	-2.6 ± 0.27	-1.47 ± 0.2
UGUUAGCAAUAUUACGCCAA	-1.32 ± 0.19	-1.4 ± 0.23
UGUUAGCAAUAUUACGCCUU	-0.953 ± 0.37	-1.4 ± 0.33
UGUUAGCAAUAUUACGCGGG	-2.74 ± 0.29	-1.57 ± 0.26
UGUUAGCAAUAUUACGCGUU	-1.38 ± 0.1	-1.01 ± 0.11
UGUUAGCAAUAUUACGCUAG	-1.94 ± 0.5	-1.4 ± 0.47
UGUUAGCAAUAUUACGCUGA	-2.26 ± 0.44	
UGUUAGCAAUAUUACGGCCA	0.385 ± 0.17	0.166 ± 0.14
